Experimental data published in paper PMC12373997, “Conserved function of the HAUS6 calponin homology domain in anchoring augmin for microtubule branching” (Nature Communications, 2025).

Molecular target: T1, Taxol-stabilized microtubules polymerised from purified porcine brain tubulin (porcine, UniProt P02550 1-451; P02554 1-439)
T1 construct: P81947 was used only for the MD model; Q6B856 was used only for the MD model; Polymer of α/β-tubulin heterodimers (13- and 14-protofilament MTs in cryo-EM); brain tubulin is probably a mix of isotypes; Concentrations are α/β-tubulin heterodimer molarity; also called MTs; MT; source: tubulin purified from porcine brain; polymerised in vitro with GTP and paclitaxel
Experiment: co-sedimentation; tubulin co-sedimentation: taxol-stabilized MTs (varied, α/β-tubulin heterodimer molarity) with 1 µM purified N-clamp, 0.25 mg/ml BSA, BRB80-MT buffer (80 mM PIPES, 1 mM MgCl2, 1 mM EGTA, 12.5% glycerol, pH 6.8), 20 min at room temperature, 200,000 g 10 min 27 °C; SDS-PAGE densitometry of pellet; apparent Kd from a quadratic fit
Details: both partners purified

- Kd: 2900 nM
B1: D. melanogaster augmin N-clamp with Dgt4 lacking its N-terminal extension (complex)
chain 1: MSDAVDKMLAGMAANRQTMNRQLAKIDEIMERSNNTLLHIESNSKAFSQNVALSETQKMYNLRPEAEMTLSKILENFKLLMSSSDQREETYSALEGCLAYRHRVEHLGSSVRKLVALYDTVGQMKNSQEEQYASEDSP
chain 2: MDRTIIAPWKAEEKEQSEKLHRKLQGLALVHPLPDELRKLIAWDMFLKPNQVAFVHVMHYLFRLLDPAEFKRRFFWPITDKKSEANFRSSTVEYLKHLNEKHQLHWANIKSYLVVMPGGMRFINFLLEFVGFVIQELIKQREKSLGLEAGTPNVSAKVMARQNAVMKEYASSYVVNLEENTALLRDKTQKIRRLMADLSADMGVPEEQLADDGFLDEFEATAALGVERVITQPTERKFDLEASLCGLKEAIDLFQVKQAENNQSKEAVEKALRGMRVLFD
chain 3: METNVDFSSISSKLYRKYAQHVRNLKDVCVSKTVMKPGAFFDSLQQMMEEEAAATTPPRDLSSVADYAELFKTLEEYPANLQKMPKKRELQRTNSTLLRGADESVAMGINTSNVSLSLTRLEEQRSAVDVYNDFKGFQRKLAKIYDEAAALDTTESIYKQKLTQLHGFAQQLEKLMPTGGESPPDAFTSEQ
chain 4: MDDIQYLLHLEAMRRFQEDSRNVKRQVEEQVRIWLDAKCEYQRDFGRLARLLKCGALQAAVDAHRVSDVNQVDQAAKDIASLRSKLGS
modifications: Dgt4-deltaNT start (MDDIQY) read from the printed N-del primer, Dgt4 end from 9RPD entity 1; Dgt6 from 9RPD entity 2; Msd5 end is estimated from the length of the 9RPD fusion entity; Msd1 is assumed …
